According to publication PMC6631030, “Unraveling Sugar Binding Modes to DC-SIGN by Employing Fluorinated Carbohydrates” (Molecules, 2019):

Target: the molecule itself
Assay: negative-stain TEM; purified refolded DC-SIGN ECD, negative staining, Jeol JEM-1230

B1: dendritic cell-specific intercellular adhesion molecule 3-grabbing non-integrin (DC-SIGN) full extracellular domain, tetramer (domain or fragment, UniProt Q9NNX6 70-404, looked up)
chain: EQSRQDAIYQNLTQLKAAVGELSEKSKLQEIYQELTQLKAAVGELPEKSKLQEIYQELTRLKAAVGELPEKSKLQEIYQELTWLKAAVGELPEKSKMQEIYQELTRLKAAVGELPEKSKQQEIYQELTRLKAAVGELPEKSKQQEIYQELTRLKAAVGELPEKSKQQEIYQELTQLKAAVERLCHPCPWEWTFFQGNCYFMSNSQRNWHDSITACKEVGAQLVVIKSAEEQNFLQLQSSRSNRFTWMGLSDLNQEGTWQWVDGSPLLPSFKQYWNRGEPNNVGEEDCAEFSGNGWNDDKCNLAKFWICKKSAASCSRDEEQFLSPAPATPNPPPA
notes: DC-SIGN, full extracellular domain (ECD), residues 70-404; the fragment was inserted in pET15b via NdeI and BamHI, and the protein was purified on mannose-Sepharose, not by a tag; The results call it 'tetrameric full-length DC-SIGN', the methods give the ECD 70-404; also called DC-SIGN tetramer; tetrameric DC-SIGN
stoichiometry N: 4
